Results on ten molecules are retold here after PMC10539519, “Computational remodeling of an enzyme conformational landscape for altered substrate selectivity” (Nature Communications, 2023).

Changes are numbered by the printed parent chain. Names may count otherwise.

First the molecules themselves.
T1: E. coli aspartate aminotransferase (AAT) (Escherichia coli, UniProt P00509)
T1 construct: gene aspC; full-length, N-terminal His-tag, expressed in E. coli BL21-Gold (DE3), Ni-NTA purified; 90 kDa homodimer, PLP-dependent
T1 sequence (P00509 1-396): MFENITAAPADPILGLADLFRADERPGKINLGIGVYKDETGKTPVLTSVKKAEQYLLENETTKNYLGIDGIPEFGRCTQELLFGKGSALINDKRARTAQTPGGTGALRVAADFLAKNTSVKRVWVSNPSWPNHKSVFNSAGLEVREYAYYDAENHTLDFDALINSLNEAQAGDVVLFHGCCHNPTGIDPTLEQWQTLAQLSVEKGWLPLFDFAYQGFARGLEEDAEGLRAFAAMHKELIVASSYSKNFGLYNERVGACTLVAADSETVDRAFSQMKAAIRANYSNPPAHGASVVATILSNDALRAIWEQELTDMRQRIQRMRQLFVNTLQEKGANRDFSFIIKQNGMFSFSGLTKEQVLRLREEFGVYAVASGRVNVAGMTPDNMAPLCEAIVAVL

B1: wild-type E. coli aspartate aminotransferase (enzyme)
chain: T1 sequence (P00509 1-396)
modifications: imine bond between PLP and K246 (internal aldimine)
notes: aspartate aminotransferase (AAT), Escherichia coli, UniProt P00509; Gene with N-terminal His-tag in pET-45b; also called AAT; WT; source: E. coli BL21-Gold (DE3), purified (Ni-NTA, gel filtration)
B2: E. coli aspartate aminotransferase hexamutant HEX (enzyme)
chain: T1 sequence (P00509 1-396) with V35L, K37Y, T43I, N64L, T104S, N285S
modifications: imine bond between PLP and K246 (internal aldimine)
notes: aspartate aminotransferase (AAT), Escherichia coli, UniProt P00509, with six mutations; T104S and N285S are T109S and N297S in the numbering of PDB 1AHE and 1AHY; Mutant genes were ligated into pET-11a; the proteins were purified on Ni-NTA; source: E. coli BL21-Gold (DE3), purified (Ni-NTA, gel filtration)
B3: E. coli aspartate aminotransferase (AAT) (Escherichia coli K-12) (protein)
chain: T1 sequence (P00509 1-396)
notes: full-length, N-terminal His-tag, expressed in E. coli BL21-Gold (DE3), Ni-NTA purified; 90 kDa homodimer, PLP-dependent
B4: E. coli aspartate aminotransferase (AAT) (Escherichia coli K-12; K37F/N64Y/T43I) (protein)
chain: T1 sequence (P00509 1-396) with K37F, T43I, N64Y
notes: as for B3
B5: E. coli aspartate aminotransferase (AAT) (Escherichia coli K-12; K37Y/N285S/N64L/T104S/T43I/V35L) (protein)
chain: T1 sequence (P00509 1-396) with V35L, K37Y, T43I, N64L, T104S, N285S
notes: as for B3
B6: E. coli aspartate aminotransferase (AAT) (Escherichia coli K-12; K37F/N64T/T43I) (protein)
chain: T1 sequence (P00509 1-396) with K37F, T43I, N64T
notes: as for B3
B7: E. coli aspartate aminotransferase (AAT) (Escherichia coli K-12; K37I/N64S/T43F/V35A) (protein)
chain: T1 sequence (P00509 1-396) with V35A, K37I, T43F, N64S
notes: as for B3
B8: E. coli aspartate aminotransferase (AAT) (Escherichia coli K-12; K37F/N64S/T43C) (protein)
chain: T1 sequence (P00509 1-396) with K37F, T43C, N64S
notes: as for B3

One data set concerns the molecule itself. The data set is described as follows: crystal structure; X-ray crystallography, space group P 6_(3), two chains in the asymmetric unit; crystals grown with 20 mM maleate and ammonium sulfate, with or without soaking to remove maleate; data at 278 K (AIFS at 100 K; WT, HEX, VFIT also at 303 K).
Details: not given
The term stoichiometry N denotes the number of molecules, sites or subunits per partner or assembly. For B1, the “stoichiometry N” value came out at 2.
On to B2, for which the “stoichiometry N” value is 2.

Substrate in the next data set: N[C@@H](CC(=O)O)C(=O)O
In words: purified protein. Particulars: co-substrate α-ketoglutarate (fixed, 0.1563–1.25 mM range), 16 µM PLP, 5 mM NAD+, 100 mM potassium phosphate pH 8, 37 °C.
For orientation: Km means the substrate concentration at which the rate is half of its maximum. In general, kcat/Km refers to the second-order rate constant that governs catalysis at low substrate concentration. Take B3: the Km came out at 0.21 ± 0.03 mM, the kcat is 7.8 s⁻¹ and the kcat/Km came to 37000 ± 5000 M⁻¹ s⁻¹.
As for B4, the Km is 0.12 ± 0.01 mM, the kcat was determined as 0.263 s⁻¹ and the kcat/Km was 2200 M⁻¹ s⁻¹.
On the same counts, the results for B5 are 0.059 ± 0.007 mM, 1.32 s⁻¹ and 22000 ± 3000 M⁻¹ s⁻¹.
On the same counts, the results for B6 are 0.027 ± 0.003 mM, 0.9 s⁻¹ and 33000 ± 4000 M⁻¹ s⁻¹.
For the molecule B7, the Km was found to be 0.32 ± 0.03 mM, the kcat was determined as 2.42 s⁻¹ and the kcat/Km is 7600 M⁻¹ s⁻¹.
On the same counts, the results for B8 are 0.068 ± 0.007 mM, 6 s⁻¹ and 88000 ± 9000 M⁻¹ s⁻¹.

For the next data set, the target named is T1, E. coli aspartate aminotransferase (AAT). In words: room-temperature X-ray crystallography. In kind it is binding. Particulars: co-crystallised with 20 mM maleate, 278 K; contacts Arg280 and Arg374; closed conformation.
For `O=C(O)/C=C\C(=O)O` [maleate], the “room-temperature X-ray crystallography” value is “electrostatic interactions between maleate and the side chains of Arg280 and Arg374”.

Staying with this data set, now noted: covalent internal aldimine with K246; 10 µM PLP in crystallisation.
For `Cc1ncc(COP(=O)(O)O)c(C=O)c1O` [pyridoxal phosphate], the “room-temperature X-ray crystallography” value is “Restraints for PLP in its internal aldimine form were generated using phenix.elbow”.

Substrate in a further data set: N[C@@H](Cc1ccccc1)C(=O)O
The data set is described as follows: purified protein. In kind it is biochemical, Escherichia coli. To be noted: co-substrate α-ketoglutarate (fixed, 0.1563–1.25 mM range), 16 µM PLP, 5 mM NAD+, 100 mM potassium phosphate pH 8, 37 °C.
In the case of B4, the Km is 0.42 ± 0.04 mM, the kcat was found to be 17.3 ± 0.4 s⁻¹ and the kcat/Km came to 41000 ± 4000 M⁻¹ s⁻¹.
Consider B5, for which the Michaelis-Menten constant (Km) was found to be 0.27 ± 0.03 mM, the kcat stood at 9 ± 0.2 s⁻¹ and the kcat/Km worked out at 33000 ± 4000 M⁻¹ s⁻¹.
On the same counts, the results for B6 are 0.90 ± 0.06 mM, 22.8 ± 0.4 s⁻¹ and 25000 ± 2000 M⁻¹ s⁻¹.
On the same counts, the results for B7 are 2.6 ± 0.2 mM, 0.54 ± 0.01 s⁻¹ and 210 ± 20 M⁻¹ s⁻¹.
Consider B8, for which the Km was 12 ± 1 mM, the kcat came out at 87 ± 3 s⁻¹ and the kcat/Km is 7200 ± 700 M⁻¹ s⁻¹.

Substrate in the next data set: O=C(O)CCC(=O)C(=O)O
The data set is described as follows: purified protein. In kind it is biochemical, Escherichia coli. Particulars: α-ketoglutarate varied 0.002–20 mM, co-substrate 10–20 mM L-aspartate or L-phenylalanine, substrate inhibition, 16 µM PLP, pH 8, 37 °C.
In the case of B3, the Km is 0.065 ± 0.005 mM and the kcat is 12.2 ± 0.3 s–1.
